B4: GST-mRXRα(DE) (pGEX2T-mRXRα(DE), amino acids 205-467) (receptor, mouse, UniProt P28700 205-467, looked up)
chain: MKREAVQEERQRGKDRNENEVESTSSANEDMPVEKILEAELAVEPKTETYVEANMGLNPSSPNDPVTNICQAADKQLFTLVEWAKRIPHFSELPLDDQVILLRAGWNELLIASFSHRSIAVKDGILLATGLHVHRNSAHSAGVGAIFDRVLTELVSKMRDMQMDKTELGCLRAIVLFNPDSKGLSNPAEVEALREKVYASLEAYCKHKYPEQPGRFAKLLLRLPALRSIGLKCLEHLFFFKLIGDTPIDTFLMEMLEAPHQAT
notes: range 205-467; also called GST-RXR; GST-RXRα(DE); not shown: glutathione-S-transferase (GST) of pGEX2T (Pharmacia)

Key:
ER, RARα and RXRα LBDs = assay: GST pull-down of TIF2 polypeptides with NR LBDs; type: binding; details: in vitro, with or without 10^−6 M ligand
Experimental: (b) Mapping of the nuclear receptor-interacting domain of TIF2.
(c-d) Interaction of TIF2 NID mutants with NRs in vitro. […] For quantification of point mutant interactions, see below.
(e-f) Effect of TIF2 NID point mutations on stimulation of NR AF-2 activity. Cos-1 cells were cotransfected with 1 μg of the (17m)5-TATA-CAT reporter, 0.2 μg of GAL-hERα(EF) or GAL-mRXRα(DE), and 2.5 μg of the TIF2.1 wildtype or mutated fragments, as indicated. […] Each bar represents the mean value obtained from at least three (interaction) or at least four (transactivation) experiments, respectively; standard deviations are indicated. Note that the absolute values for TIF2.1 wildtype activity varied by ±16% when cotransfected with GAL-hERα(EF) and by ±34% when cotransfected with GAL-mRXRα(DE). In the in-vitro-interaction assays, the affinity of the TIF2.1 wildtype standard varied by less than ±25%. Expression levels of TIF2 mutants in the cells were verified by Western blot (not shown) with mouse monoclonal antibody 3Ti3F1, which is directed against an epitope outside the mutated area.
To further delineate the TIF2 NR interaction domain (NID), we studied the interaction between a series of TIF2 deletion mutants and the ER or RARα LBDs, using GST-fusion protein-based in vitro assays. In both cases, an NWD was mapped to the central region of TIF2 (amino acids 624-869 in mutant TIF2.5; see FIGS. 7a and b). No additional NWD could be identified in the N- or C-termini of TIF2 (FIGS. 7a and b; mutants TIF2.0, TIF2.2 and TIF2.7). Note that, in contrast, SRC-1, a paralogue of TIF2, apparently harbours two distinct non-contiguous NIDs located in the central and C-terminal regions (Onate, S. A. et al., Science 270:1354-1357 (1995), Yao, T. P. et al., Proc. Natl. Acad. Sci. USA 93:10626-10631 (1996); Zhu, Y. et al., Gene Epression 6:185-195 (1996)).

GAL4 reporter = assay: GAL4 DBD-TIF2 fusion CAT reporter transactivation assay; type: cell-based; details: Cos-1 and/or HeLa cells
Experimental: (a) HeLa cells were cotransfected with 1 μg (17m)5-βG-CAT and 10 μg GAL(1-147) or 1,3 and 10 μg GAL(1-147)-TIF2.1, respectively.
(c) Analysis of the transcriptional activity of GAL-TIF2 fusion proteins. Cos-1 and HeLa cells were transfected with 3 lag of plasmids expressing different regions of TIF2 fised to the DNA-binding domain of the yeast transcription factor GALA together with 1 μg of the (7m)5-G-CAT reporterplasmid. CAT assays were performed as described (Bocquel, M. T. et al., Nucl Acids Res. 17:2581-2595 (1989)). Quantitative data on CAT reporter expression were obtained either by phosphoimager analysis (BAS2000, Fuji) of ^14C-labeled CAT reaction products separated by thin-layer chromatography, or using the CAT ELISA Kit (Boehringer Mannheim). In all cases, CAT activities were normalized to the β-galactosidase concentrations resulting from cotransfection of 1 μg of pCMVPGal (gift from T. Lerouge) as internal control. Fold inductions above the GAL4 DBD value are indicated. The mean and standard deviation of at least three experiments are shown. A representative Western blot, illustrating the expression levels of the GAL4-TIF2 fusion proteins, expressed from 10 μg of the corresponding expression vectors, is shown on the left.
(b) Transcriptional activation of TIF2 AF-1 mutants. Cos-1 and HeLa cells were cotransfected with 3 μg of plasmids expressing different mutants of the TIF2 AF-1 fused to the DNA-binding domain of the yeast transcription factor GAL4 together with 1 μg of the (17m)5-G-CAT reporter plasmid. Fold inductions above the activation seen with the GAL4 DBD alone are indicated. The values represent the mean of at least three experiments.
(a) Transcriptional activation by TIF2.13 and TIF2.13 mutants. Cos-1 and HeLa cells were cotransfected with 3 μg of plasmids expressing the TIF2.13 region and the indicated TIF2.13 mutants fused to the DNA-binding domain of the yeast transcription factor GALA together with 1 μg of the (17m)5-G-CAT reporter plasmid. Fold inductions above the GAL4 DBD 1-fold value are indicated. The mean and standard deviation obtained from at least four experiments are shown. The expression levels of the GAL4-TIF2.13 fusion proteins were confirmed by western blotting (data not shown).
Transient transfections of HeLa and Cos-1 cells were performed as described (Gronemeyer et al., (1987); Bocquel, M. T. et al., Nucl. Acids Res. 17:2581-2595 (1989)).

[1] = biological target: T1, TIF2.1 (TIF2 amino acids 624 to 1287) (human, UniProt Q15596 624-1287); assay: Far-Western blot with 32P-labelled NR LBD probe, agonist present
T1 construct: Form without a stated tag: expression-library clone, expressed in Cos cells from pSG5, or in-vitro-translated; also called cytoplasmic TIF2.1 polypeptide
T1 sequence: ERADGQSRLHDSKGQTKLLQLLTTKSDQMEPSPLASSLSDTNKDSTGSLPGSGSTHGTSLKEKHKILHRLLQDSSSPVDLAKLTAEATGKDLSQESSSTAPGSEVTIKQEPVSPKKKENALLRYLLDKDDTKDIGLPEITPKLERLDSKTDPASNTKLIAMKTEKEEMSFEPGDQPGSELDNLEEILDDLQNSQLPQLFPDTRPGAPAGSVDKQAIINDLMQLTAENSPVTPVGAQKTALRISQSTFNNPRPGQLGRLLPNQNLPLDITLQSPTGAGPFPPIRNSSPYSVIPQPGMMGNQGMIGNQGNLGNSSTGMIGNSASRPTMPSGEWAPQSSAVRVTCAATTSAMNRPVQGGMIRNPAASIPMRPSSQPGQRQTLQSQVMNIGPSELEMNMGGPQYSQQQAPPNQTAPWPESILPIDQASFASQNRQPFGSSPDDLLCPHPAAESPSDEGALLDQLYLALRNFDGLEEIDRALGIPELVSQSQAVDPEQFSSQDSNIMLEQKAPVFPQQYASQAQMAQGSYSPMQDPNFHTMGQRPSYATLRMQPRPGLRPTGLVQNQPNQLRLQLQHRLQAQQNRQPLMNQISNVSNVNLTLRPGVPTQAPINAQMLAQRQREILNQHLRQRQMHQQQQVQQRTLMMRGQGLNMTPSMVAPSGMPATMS

[2] = biological target: B4; assay: in vitro GST interaction of TIF2.1 point mutants, with ligand, relative to TIF2.1 wild type
[3] = biological target: T2, GST-hRARα(DEF) (pGEX2T-hRARα(DEF), amino acids 153-462) (human, UniProt P10276 153-462); assay: as above
T2 construct: range 153-462; Bacterially produced; also called GST-RAR; GST-RARα(DEF); not shown: glutathione-S-transferase (GST) of pGEX2T (Pharmacia)
T2 sequence (looked up): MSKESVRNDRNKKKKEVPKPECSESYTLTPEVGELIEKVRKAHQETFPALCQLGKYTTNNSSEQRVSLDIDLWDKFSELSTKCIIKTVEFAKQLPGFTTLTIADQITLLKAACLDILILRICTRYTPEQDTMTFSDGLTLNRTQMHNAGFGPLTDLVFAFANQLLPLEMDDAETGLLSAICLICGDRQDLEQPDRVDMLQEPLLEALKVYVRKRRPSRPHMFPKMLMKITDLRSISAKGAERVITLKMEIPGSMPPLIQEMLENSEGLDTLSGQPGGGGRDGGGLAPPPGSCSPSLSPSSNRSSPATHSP

B1: TIF2.34: TIF2.5 C-terminally truncated to Pro775 (protein)
chain: MKLLSSIEQACDICRLKKLKCSKEKPKCAKCLKNNWECRYSPKTKRSPLTRAHLTEVESRLERLEQLFLLIFPREDLDMILKMDSLQDIKALLTGLFVQDNVNKDAVTDRLASVETDMPLTLRQHRISATSSSEESSNKGQRQLTVSERADGQSRLHDSKGQTKLLQLLTTKSDQMEPSPLASSLSDTNKDSTGSLPGSGSTHGTSLKEKHKILHRLLQDSSSPVDLAKLTAEATGKDLSQESSSTAPGSEVTIKQEPVSPKKKENALLRYLLDKDDTKDIGLPEITPKLERLDSKTDP
binding to NRs (ER, RARα LBDs) (ER, RARα and RXRα LBDs): interacted with ER and RARα LBDs in a ligand-dependent manner

B2: TIF2.18: TIF2.13 with removal of 20 N-terminal amino acid residues (protein, UniProt Q15596 1031-1122, looked up, fragment)
chain: NQTAPWPESILPIDQASFASQNRQPFGSSPDDLLCPHPAAESPSDEGALLDQLYLALRNFDGLEEIDRALGIPELVSQSQAVDPEQFSSQDS
transcriptional activation of GAL4 reporter by GAL4 DBD fusion (GAL4 reporter): reduced transcriptional activity only weakly

B3: TIF2.15: TIF2.13 with removal of 26 C-terminal amino acid residues (protein, UniProt Q15596 1011-1096, looked up, fragment)
chain: PSELEMNMGGPQYSQQQAPPNQTAPWPESILPIDQASFASQNRQPFGSSPDDLLCPHPAAESPSDEGALLDQLYLALRNFDGLEEI
transcriptional activation of GAL4 reporter by GAL4 DBD fusion (GAL4 reporter): reduced transcriptional activity only weakly

B4
binding result [1]: binds

B5: TIF2.1 m12 (LL→AA in NR box motifs I and II) (other)
chain: ERADGQSRLHDSKGQTKLLQAATTKSDQMEPSPLASSLSDTNKDSTGSLPGSGSTHGTSLKEKHKILHRAAQDSSSPVDLAKLTAEATGKDLSQESSSTAPGSEVTIKQEPVSPKKKENALLRYLLDKDDTKDIGLPEITPKLERLDSKTDPASNTKLIAMKTEKEEMSFEPGDQPGSELDNLEEILDDLQNSQLPQLFPDTRPGAPAGSVDKQAIINDLMQLTAENSPVTPVGAQKTALRISQSTFNNPRPGQLGRLLPNQNLPLDITLQSPTGAGPFPPIRNSSPYSVIPQPGMMGNQGMIGNQGNLGNSSTGMIGNSASRPTMPSGEWAPQSSAVRVTCAATTSAMNRPVQGGMIRNPAASIPMRPSSQPGQRQTLQSQVMNIGPSELEMNMGGPQYSQQQAPPNQTAPWPESILPIDQASFASQNRQPFGSSPDDLLCPHPAAESPSDEGALLDQLYLALRNFDGLEEIDRALGIPELVSQSQAVDPEQFSSQDSNIMLEQKAPVFPQQYASQAQMAQGSYSPMQDPNFHTMGQRPSYATLRMQPRPGLRPTGLVQNQPNQLRLQLQHRLQAQQNRQPLMNQISNVSNVNLTLRPGVPTQAPINAQMLAQRQREILNQHLRQRQMHQQQQVQQRTLMMRGQGLNMTPSMVAPSGMPATMS
notes: also called single intact NR box III
times less efficient in NR interaction than the wild-type TIF2 [2]: 20 times less efficient than wild type
times less efficient in NR interaction than the wild-type TIF2 [3]: 20 times less efficient than wild type

From patent publication US6861508B2, “Transcriptional intermediary factor-2” (Institut National de la Sante et de la Recherche Medicale, priority 1996, dated 2005)
